Data reported in patent US20180318355A1, “METHODS AND COMPOSITIONS FOR IMPROVED TISSUE REGENERATION BY SUPPRESION OF INTERFERIN-GAMMA AND TUMOR NECROSIS FACTOR-ALPHA” (Alfred E. Mann Institute for Biomedical Eng. at the …, priority 2011, published 2018).
Entries after “also recorded” stand apart in the source; their conditions may differ. Where a SMILES comes first, the peptide text is derived from it. The star is where a group is joined. Cbz = O=C(OCc1ccccc1)*; CH2F = FC*

Experiments:
[1] = system: Fas, caspase 8, caspase 3; test: Western blot of Fas, cleaved caspase 8 and cleaved caspase 3 in BMMSCs; format: cell-based, mouse; conditions: for cleaved caspase 3 in IFN-γ/TNF-α-treated BMMSCs / cleaved caspase 8 in IFN-γ/TNF-α-treated BMMSCs: siRNA or inhibitor treatment before IFN-γ/TNF-α
Description: (§1) Western blot analysis. Total protein was extracted using M-PER mammalian protein extraction reagent (Thermo, Rockford, Ill.). Nuclear protein was obtained using NE-PER nuclear and cytoplasmic extraction reagent (Thermo). Protein was applied and separated on 4-12% NuPAGE gel (Invitrogen) and transferred to Immobilon™-P membranes (Millipore). The membranes were blocked with 5% non-fat dry milk and 0.1% tween-20 for 1 hour, followed by incubation with the primary antibodies (1:20¬1000 dilution) at 4° C. overnight. Horseradish peroxidase-conjugated IgG (Santa Cruz Biosciences; 1:10,000) was used to treat the membranes for 1 hour, and enhanced with a SuperSignal® West Pico Chemiluminescent Substrate (Thermo). The bands were detected on BIOMAX MR films (Kodak, Rochester, N.Y.). Each membrane was also stripped using a stripping buffer (Thermo) and reprobed with anti-β-actin antibody to quantify the amount of loaded protein.
(§2) SiRNAs for Fas, TNFR2, IKK, FLIP and XIAP were used to treat the BMMSCs according to the manufacture's instruction, and IFN-γ and TNF-α were added for 24 hrs. Inhibitors for internalization (Latrunculin A, 0.2 μM), pan caspase (Z-VAD (OMe)-FMK, 50 μM), caspase 8 ([…], 20 μM) and caspase 3 (Z-DEVD-FMK, 20 µM) were used to treat the BMMSCs at 4 hrs before IFN-γ and TNF-α were added. Cell apoptosis were analysis by immunofluorescence staining and FACS^Calibur (Annexin V-PE apoptosis detection kit I) and Western blot analysis for caspase 8, cleaved caspase 8, caspase 3 and cleaved caspase 3.

[2] = system: Fas; test: Fas internalization (immunocytochemical staining); format: cell-based, mouse; conditions: caspase inhibitor in IFN-γ/TNF-α-treated BMMSCs vs control group
Description: as §2
Fas internalization. P1 BMMSCs were seeded to 2-well chamber slide. IFN-γ (50 ng/ml) was added to pre-treat BMMSCs for 24 hours, and then TNF-α (20 ng/ml) was added. At the 0.5, 1, 2, 4 hours after TNF-α was added, the cells were washed by PBS twice, and fixed with 4% PFA for 15 min. After treated by Triton-X 15 min, the cells were blocked with normal serum matched to secondary antibodies, incubated with 1 μg/ml anti-Fas (Santa Cruz) antibody at room temperature for 2 hours, treated with Rhodamin-conjugated secondary antibodies (1:200, Jackson ImmunoResearch). Then the cells were incubated with ([…] (1:40; Invitrogen) at room temperature for 20 min, and were mounted by vectashield mounting medium DAPI (Vector Laboratories).

[3] = system: BMMSCs; test: siRNA and inhibitors: IFN-γ/TNF-α-induced BMMSC death; format: cell-based, mouse; conditions: siRNA or inhibitor treatment before IFN-γ/TNF-α, toluidine blue staining
Description: as §2

[4] = system: BMMSCs; test: Cell apoptosis and cell survival assay in vitro (toluidine blue, Annexin V); conditions: for BMMSC death / viability: single cytokine, 1-200 ng/ml, three days
Description: Cell apoptosis and cell survival assay. 0.5×10^6 BMMSCs were seeded to 6-well culture plate and co-cultured with different doses of recombined IL-4, IL-6, IL-17A, TGF-β1, TNF-α and IFN-γ (0, 10, 20, 50, 100, 200 ng/ml) for 3 days. To measure the cell viability, the total cells were analyzed by using a cell counting kit-8 (Dojindo Molecular Technoloies, Gaithersburg, Md.) according to the manufacture's instruction. And the culture plates with cells were stained with 2% toluidine blue O and 2% paraformaldehyde (Sigma-Aldrich Corporate, St. Louis, Mo.).
For cell apoptosis analysis, the BMMSCs were stained by Annexin V-PE apoptosis detection kit I (BD Bioscience) following manufacture's protocol, and analyzed by FACS^Calibur (BD Bioscience).
IFN-γ and TNF-α synergism for apoptosis. For cell apoptosis staining, the 1×10^4 BMMSCs were seeded onto two chambers slide, IFN-γ (50 ng/ml) and TNF-α (20 ng/ml) were used to treat the BMMSCs for 24 hrs either separately or combined, Annexin V-PE apoptosis detection kit I (BD Bioscience) was used to stain the BMMSCs following manufacture's protocol, and analyzed on microscopy and FACS^Calibur (BD Bioscience). Cell viability was analyzed by using cell counting kit, and culture plates were stained with 2% toluidine blue O and 2% paraformaldehyde.
IFN-γ and TNF-α synergism for apoptosis. 0.5×10^6 BMMSCs were seeded to 6-well culture plate and co-cultured with different doses of TNF-α (0, 5, 50, 100 ng/ml) with or without IFN-γ (50 ng/ml) for I day. Then, the BMMSCs were stained by Annexin V-PE apoptosis detection kit I (BD Bioscience) following manufacture's protocol, and analyzed by FACS^Calibur (BD Bioscience).

[5] = system: BMMSC-mediated bone formation; test: BMMSC-mediated bone formation, subcutaneous BMMSC/HA/TCP implantation; format: in vivo; conditions: 200 ng cytokine in hydrogel co-implanted with BMMSCs/HA/TCP, immunocompromised mice, 8 weeks post implantation
Description: BMMSC-mediated bone formation. Approximately 4.0×10^6 BMMSCs were mixed with hydroxyapatite/tricalcium phosphate (HA/TCP) ceramic particles (40 mg, Zimmer Inc., Warsaw, Ind.) as a carrier and subcutaneously implanted into the dorsal surface of 8-10 weeks old immunocompromised mice or C57BL/6J mice. At eight weeks post-implantation, the implants were harvested, fixed in 4% paraformaldehyde and then decalcified with 5% EDTA (pH 7.4), followed by paraffin embedding. The 6 μm paraffin sections were stained with hematoxylin and eosin (H&E) and analyzed by an NIH Image J. Five fields were selected and newly formed mineralized tissue area in each field was calculated and shown as a percentage to total tissue area.
Cytokines in BMMSC-mediated bone formation. Approximately 4.0×10^6 of littermate-derived or autologous BMMSCs were mixed with HA/TCP ceramic powders (40 mg, Zimmer Inc.), and hydrogel (Glycosan Biosysterms, Salt Lake City, Utah) with 200 ng IFN-γ, TNF-α, IL-4, IL-6 or IL-17A were covered on the surface of the implants as a slow released system. At eight weeks post-implantation, the implants were harvested and newly formed mineralized tissue areas were analyzed. […]
BMMSC-mediated bone formation. Approximately 4.0×10^6 of littermate-derived or autologous BMMSCs were mixed with hydroxyapatite/tricalcium phosphate (HA/TCP) ceramic particles (40 mg, Zimmer Inc., Warsaw, Ind.) as a carrier and subcutaneously implanted into the dorsal surface of 8-10 weeks old immunocompromised mice or C57BL6 mice. When aspirin was used, BMMSCs were treated with 50 μg/ml aspirin for 2 days and mixed with HA/TCP particles to be subcutaneously implanted into immunocompromised mice. When IFN-γ and TNF-α were used in the subcutaneous implants, 200 ng IFN-γ, TNF-α or/and 100 μg aspirin mixed with 250 μl hydrogel as a slow released system and subcutaneously co-implanted to the dorsal surface of 8-10 weeks old immunocompromised mice.
At eight weeks post-implantation, the implants were harvested, fixed in 4% paraformaldehyde and then decalcified with 5% EDTA (pH 7.4), followed by paraffin embedding. The 6 μm paraffin sections were stained with hematoxylin and eosin (H&E) and analyzed by an NIH Image J. Five fields were selected and newly formed mineralized tissue area in each field was calculated and shown as a percentage to total tissue area.

[6] = system: BMMSCs; test: Osteogenic differentiation assay (alizarin red staining); format: cell-based, mouse; conditions: for mineralized nodule formation / osteogenic differentiation of BMMSCs: alizarin red
Description: (§3) Osteogenic differentiation assay. BMMSCs were cultured under osteogenic culture condition media containing 2 mM […] (Sigma-Aldrich), 100 μM L-ascorbic acid 2-phosphate and 10 nM dexamethasone (Sigma-Aldrich). Different doses of IFN-γ (50, 200 ng/ml) were added to the osteogenic culture condition media every 3 days. After the osteogenic induction, the cultures were stained with alizarin red. Expressions of Runx2, ALP, and OCN were assayed by Western blot analysis.

[7] = system: Smad 6, Smad 7, Runx2, ALP, OCN; test: Western blot of Smad 6, Smad 7 and osteogenic genes in BMMSCs; format: cell-based, mouse
Description: as §3, §1

[8] = 200 ng/ml cytokine, osteogenic media, 14 days
[9] = Fas^−/− BMMSCs from lpr mice and Fas knock down BMMSCs by siRNA
[10] = wild type BMMSCs, IFN-γ 50 ng/ml, TNF-α 20 ng/ml, alone or co-stimulated

## COC(=O)CC[C@H](NC(=O)[C@H](CC(=O)OC)NC(=O)OCc1ccccc1)C(=O)N[C@H](C(=O)N[C@@H](CC(=O)OC)C(=O)CF)C(C)C [Caspase 3 inhibitor, Z-DEVD-FMK]
[1]
  cleaved caspase 3 in IFN-γ/TNF-α-treated BMMSCs: partially inhibition
  cleaved caspase 8 in IFN-γ/TNF-α-treated BMMSCs: no inhibitive effect
[2]
  number of BMMSCs with Fas internalization: reduced number of Fas internalization
[3]
  IFN-γ/TNF-α-induced BMMSC death: rescuing IFN-γ/TNF-α-induced BMMSC death

## C/C1=C/C(=O)O[C@@H]2C[C@@H](CC[C@H](C)/C=C\C=C\CC1)O[C@@](O)([C@@H]1CSC(=O)N1)C2 [Lnt A, Latrunculin A]
[1]
  cleaved caspase 3 in IFN-γ/TNF-α-treated BMMSCs: significantly reduced
  cleaved caspase 8 in IFN-γ/TNF-α-treated BMMSCs: significantly reduced
[1]; listed as LntA
  cleaved caspase 3 in IFN-γ/TNF-α-treated BMMSCs: inhibition of cleaved caspase 3 and 8
  cleaved caspase 8 in IFN-γ/TNF-α-treated BMMSCs: inhibition of cleaved caspase 3 and 8
[3]
  IFN-γ/TNF-α-induced BMMSC death: significantly reduced
[3]; listed as LntA
  IFN-γ/TNF-α-induced BMMSC death: partially rescue

## COC(=O)C[C@H](NC(=O)[C@H](C)NC(=O)[C@@H](NC(=O)OCc1ccccc1)C(C)C)C(=O)CF [pan caspase inhibitor, Z-VAD (OMe)-FMK] (Cbz-Val-Ala-Asp(OMe)-CH2F)
[2]
  number of BMMSCs with Fas internalization: reduced number of Fas internalization

## TGF-β1: recombined TGF-β1 cytokine co-cultured with BMMSCs
[4]; toluidine blue staining
  BMMSC death / viability: no effect

B1: IL-6: Recombinant murine IL-6 purchased from PeproTech (protein, UniProt P08505 25-211, looked up)
Interleukin-6: FPTSQVRRGDFTEDTTPNRPVYTTSQVGGLITHVLWEIVEMRKELCNGNSDCMNNDDALAENNLKLPEIQRNDGCYQTGYNQEICLLKISSGLLEYHSYLEYMKNNLKDNKKDKARVLQRDTETLIHIFNQEVKDLHKIVLPTPISNALLTDKLESQKEWLRTKTIQFILKSLEEFLKVTLRSTRQT
[5]
  new bone formation in BMMSC implants: a reduction in new bone formation; also recorded: slightly inhibited
[6]; [8]
  mineralized nodule formation / osteogenic differentiation of BMMSCs: no inhibition effect
[4]; toluidine blue staining
  BMMSC death / viability: no effect

B2: IL-4: Recombinant murine IL-4 purchased from PeproTech (protein, UniProt P07750 21-140, looked up)
Interleukin-4: HIHGCDKNHLREIIGILNEVTGEGTPCTEMDVPNVLTATKNTTESELVCRASKVLRIFYLKHGKTPCLKKNSSVLMELQRLFRAFRCLDSSISCTMNESKSTSLKDFLESLKSIMQMDYS
[5]
  new bone formation in BMMSC implants: a reduction in new bone formation; also recorded: slightly inhibited
[6]; [8]
  mineralized nodule formation / osteogenic differentiation of BMMSCs: reduced mineralized nodule formation; also recorded: partial inhibition
[4]; toluidine blue staining
  BMMSC death / viability: no effect

B3: IL-17A: Recombinant murine IL-17A purchased from PeproTech (protein, UniProt Q62386 26-158, looked up)
Interleukin-17A: AAIIPQSSACPNTEAKDFLQNVKVNLKVFNSLGAKVSSRRPSDYLNRSTSPWTLHRNEDPDRYPSVIWEAQCRHQRCVNAEGKLDHHMNSVLIQQEILVLKREPESCPFTFRVEKMLVGVGCTCVASIVRQAA
[5]
  new bone formation in BMMSC implants: no inhibitory effect
[5]; listed as IL-17
  new bone formation in BMMSC implants: no inhibitive effect
[6]; [8]
  mineralized nodule formation / osteogenic differentiation of BMMSCs: no inhibition effect
[4]; toluidine blue staining
  BMMSC death / viability: no effect

B4: IFN-γ: Recombinant murine IFN-γ purchased from PeproTech (protein, UniProt P01580 23-155, looked up)
Interferon gamma: HGTVIESLESLNNYFNSSGIDVEEKSLFLDIWRNWQKDGDMKILQSQIISFYLRLFEVLKDNQAISNNISVIESHLITTFFSNSKAKKDAFMSIAKFEVNNPQVQRQAFNELIRVVHQLLPESSLRKRKRSRC
[5]
  new bone formation in BMMSC implants: completely blockage of new bone formation; also recorded: inhibited subcutaneous bone formation; also recorded: reduced BMMSC-mediated bone formation; also recorded: significantly reduced bone formation
[6]; 50 ng/ml IFN-γ
  mineralized nodule formation / osteogenic differentiation of BMMSCs: no significant inhibitive effect; also recorded: no inhibitory effect
[6]; [8]
  mineralized nodule formation / osteogenic differentiation of BMMSCs: significantly inhibited mineralized nodule formation; also recorded: significant reduction in mineralized nodule formation; also recorded: inhibited osteogenic differentiation
[6]; [9]
  osteogenesis of Fas-deficient BMMSCs: failed to block osteogenesis; also recorded: failed to reduce ostoegenic differentiation
[7]; 50 ng/ml IFN-γ
  Smad 6 elevation and inhibition of osteogenic genes: not observed
[7]; 200 ng/ml IFN-γ
  Smad 6 expression: elevated; also recorded: up-regulated expression
  expression of osteogenic genes Runx2, ALP and OCN: inhibited; also recorded: down-regulated expression
[7]; [9]
  expression levels of Smad 6 and Runx2: failed to block osteogenesis and alter expression levels of Smad 6 and Runx2; also recorded: failed to reduce ostoegenic differentiation and alter expression levels of Smad 6 and Runx2
[7]; IFN-γ-treated BMMSCs
  expression level of Smad 7: not altered
[1]; [10]
  Fas expression: up-regulated expression of Fas; also recorded: activated
  activation of caspase 3 and caspase 8: no activation of caspase 3 and caspase 8; also recorded: without activating caspase 3 and caspase 8
[4]; IFN-γ 50 ng/ml added to TNF-α 0, 5, 50, 100 ng/ml, flow cytometric analysis
  TNF-α-induced BMMSC apoptosis: significantly enhanced TNF-α-induced BMMSC apoptosis
[4]; IFN-γ 50 ng/ml added to TNF-α 50-200 ng/ml, toluidine blue staining
  TNF-α-induced BMMSC apoptosis: synergistically enhanced; also recorded: significantly enhanced BMMSC apoptosis
[4]; IFN-γ 50 ng/ml with TNF-α 20 ng/ml, 7AAD/Annexin staining
  TNF-α-induced BMMSC apoptosis: accelerated; also recorded: enhanced
[4]; IFN-γ 1 to 50 ng/ml with TNF-α 50 ng/ml
  BMMSC death: dose dependent BMMSC death; also recorded: correlated with IFN-γ concentration
[4]; IFN-γ 100-200 ng/ml with TNF-α 50 ng/ml
  BMMSC death: no any BMMSC survived; also recorded: complete BMMSC apoptosis
[4]; toluidine blue staining
  BMMSC death / viability: no effect; also recorded: not able to induce BMMSC apoptosis
